Data set [1] addresses Plasmodium falciparum apicoplast dihydrolipoamide dehydrogenase (PfaE3), recombinant mature-length, N-terminal His-tag (Plasmodium falciparum 3D7). The data set is described as follows: SEC; HiLoad 16/60 Superdex 200, calibrated; 50 mM potassium phosphate, 150 mM NaCl, 2 mM EDTA, pH 7.4; Ni-NTA eluate applied. On the technique in general: SEC sorts molecules by how far they enter the pores of the column.

The target is the same in data set [2]. The experiment in a line: AUC; sedimentation equilibrium, 17000 rpm, 4°C, 4.7 to 22.7 μM PfaE3; 50 mM potassium phosphate, 250 mM NaCl, 2 mM EDTA, pH 7.4; interference optics, single species model in SEDPHAT.
The target is the same in data set [3]. The data set is described as follows: SAXS; EMBL beamline X33, DESY; 10°C; PfaE3 at 9, 8, 6, 5 and 4 μM; Guinier, p(r) and ab initio DAM with P2 symmetry.
Substrate in data set [4]: NC(=O)CCCC[C@@H](S)CCS
The experiment in a line: purified protein. Type of data set: biochemical, Plasmodium falciparum. To be noted: forward reaction, 2 mM NAD+, 50 mM potassium phosphate, 1 mM EDTA, pH 8, 25°C.

Substrate in data set [5]: NC(=O)CCCC[C@@H]1CCSS1
The data set is described as follows: purified protein. It is filed as biochemical, Plasmodium falciparum. To be noted: reverse reaction, 200 μM NADH, 50 mM potassium phosphate, 1 mM EDTA, pH 7, 25°C.

Substrate in data set [6]: NC(=O)c1ccc[n+]([C@@H]2O[C@H](COP(=O)(O)OP(=O)(O)OC[C@H]3O[C@@H](n4cnc5c(N)ncnc54)[C@H](O)[C@@H]3O)[C@@H](O)[C@H]2O)c1
The experiment in a line: purified protein. It is filed as biochemical, Plasmodium falciparum. To be noted: forward reaction, 2 mM DHLA, 50 mM potassium phosphate, 1 mM EDTA, pH 8, 25°C.

Substrate in data set [7]: NC(=O)C1=CN([C@@H]2O[C@H](COP(=O)(O)OP(=O)(O)OC[C@H]3O[C@@H](n4cnc5c(N)ncnc54)[C@H](O)[C@@H]3O)[C@@H](O)[C@H]2O)C=CC1
The experiment in a line: purified protein. It is filed as biochemical, Plasmodium falciparum. To be noted: reverse reaction, 2 mM lipoamide, 50 mM potassium phosphate, 1 mM EDTA, pH 7, 25°C.

The term stoichiometry N denotes a count of units in the complex or per binding partner. Turning to “Plasmodium falciparum apicoplast dihydrolipoamide dehydrogenase (PfaE3), recombinant mature-length, N-terminal His-tag (enzyme)”, the stoichiometry N in data set [1], in data set [2] and in data set [3] was 2 in each case.

B1: PfaE3 (P. falciparum apicoplast E3, dihydrolipoamide dehydrogenase) (Plasmodium falciparum 3D7) (protein)
chain: LKGSTQNIMNINEKEYDLAIIGCGVGGHAAAINAMERNLKVIIFAGDENCIGGTCVNVGCIPSKALLYATNKYRELKNLDKLYYYGIHSNIFQNNKNTEIENNQLVSNSFQINITKLKEYTQSVIDKLRNGISHGFKTLKFNKNSEHVQVIYEHGQLLDKNTIKSKKSGNTYKVKNIIIATGSVPNIPNNVEIDDKSVFTSDMAVKLVGLKNYMSIIGMGIIGLEFADIYTALGSEITFLEYSSELLPIIDNDVAKYFERVFLKNKPVNYHLNTEVKYIKASKNNNPVIIGYSHRTGNDDNEKKNMTDVKELYVDSCLVATGRNPNTQNLGLEKLKIQMNRGYVSVNDNLQVKMENNEIYDNIFCIGDANGKQMLAHTASYQALKVIDFIEKKEKKNVNINVENNLSKPILYKNIPSVCYTNPELAFIGLTEKEAKVLYPDNVGVEISYYKSNSKILCENNISLNNNKKNNSYNKGQYNINDNTNGMVKIIYKEDTKEILGMFIVGNYASVLIHEAVLAINLKLSAFDLAYMVHSHPTVSEVLDTAFKSISKIRTH
notes: mature-length, apicoplast-targeting peptide removed; given as 110-667 in Results but 118-667 in Methods (forward primer at nt 331, i.e. codon 111); N-terminal 6-His tag kept (pQE30), expressed in E. coli NovaBlue (DE3); about 64 kDa, homodimer 128 kDa; 566 residues with tag; some C-terminally truncated form present
As usually defined, the Km is the concentration of substrate that gives half-maximal velocity. What is called kcat is the maximal rate divided by the concentration of active sites. Consider B1, for which the Michaelis-Menten constant (Km) in the data set “purified protein [4]” is 1160 ± 105 µM; in “purified protein [5]”, 841 ± 97 µM; in the data set “purified protein [6]”, 96 ± 12 µM; in “purified protein [7]” it was 15 ± 2 µM. Further, the kcat in “purified protein [4]” is 110 s⁻¹; in “purified protein [5]”, 97 s⁻¹; in the data set “purified protein [6]”, 110 s⁻¹; in “purified protein [7]”, 77.8 s⁻¹.

Values taken from PMC4293902, “Biochemical and structural characterization of the apicoplast dihydrolipoamide dehydrogenase of Plasmodium falciparum” (Bioscience Reports, 2015).
